Assay [1] deals with T1, surface-immobilized biotinylated microtubules (pig, UniProt Q2XVP4 1-451; Q767L7 1-444, biotin (site not stated) | biotin (site not stated)). The assay is described as follows: TIRF microscopy, fluorescence intensity of GFP-tagged MAP on microtubules; biotinylated MTs held on a streptavidin-coated coverslip; MAP titrated in BRB80 (80 mM PIPES pH 6.8, 1 mM EGTA, 2 mM MgCl2; about 100 mM salt) with 1 mg/mL casein, 0.5% pluronic acid, no motors or ATP; intensity fit to the Langmuir isotherm. To be noted: both partners purified.

For assay [2], the target named is T1, surface-immobilized biotinylated …. The assay is described as follows: cell-based or functional assay.

B1: full-length (FL) human MAP9 (GFP::Human MAP9::strepII) (natural protein, UniProt Q49MG5 1-647, looked up)
chain: MSDEVFSTTLAYTKSPKVTKRTTFQDELIRAITARSARQRSSEYSDDFDSDEIVSLGDFSDTSADENSVNKKMNDFHISDDEEKNPSKLLFLKTNKSNGNITKDEPVCAIKNEEEMAPDGCEDIVVKSFSESQNKDEEFEKDKIKMKPKPRILSIKSTSSAENNSLDTDDHFKPSPRPRSMLKKKSHMEEKDGLEDKETALSEELELHSAPSSLPTPNGIQLEAEKKAFSENLDPEDSCLTSLASSSLKQILGDSFSPGSEGNASGKDPNEEITENHNSLKSDENKENSFSADHVTTAVEKSKESQVTADDLEEEKAKAELIMDDDRTVDPLLSKSQSILISTSATASSKKTIEDRNIKNKKSTNNRASSASARLMTSEFLKKSSSKRRTPSTTTSSHYLGTLKVLDQKPSQKQSIEPDRADNIRAAVYQEWLEKKNVYLHEMHRIKRIESENLRIQNEQKKAAKREEALASFEAWKAMKEKEAKKIAAKKRLEEKNKKKTEEENAARKGEALQAFEKWKEKKMEYLKEKNRKEREYERAKKQKEEETVAEKKKDNLTAVEKWNEKKEAFFKQKEKEKINEKRKEELKRAEKKDKDKQAINEYEKWLENKEKQERIERKQKKRHSFLESEALPPWSPPSRTVFAKVF
notes: human MAP9, full length; also called FL MAP9; ASAP; source: E. coli Rosetta (DE3), purified (Strep-Tactin XT; for structural studies also heparin HP and Superdex 200); not shown: GFP, N-terminal, kept
What is called Kd is a measure of binding affinity in units of concentration. As for B1, the Kd in assay [1] stood at 61 nM. In addition, the “depolymerization rate of MTs after removing free tubulin and GTP, with MAP9 kept in the chamber” value in assay [2] was 6 fold.

Values taken from article doi:10.1101/2025.11.17.688911, “Structure and mechanism of microtubule stabilization and motor regulation by MAP9” (bioRxiv, 2025).
